From US20040204434A1, “Compounds and methods for lowering the abuse potential and extending the duration of action of a drug” (Controlled Chemicals Inc., priority 2003, published 2004)

Legend:
[1] = Nonenzymatic hydrolysis of oxycodone ester prodrugs to oxycodone in buffered solution (HPLC); type: physicochemical; details: pH 7, 37° C.
μ (rat) opioid receptor [2] = target: T1, μ (rat) opioid receptor (Rattus norvegicus, UniProt P33535); test: Inhibition of radio labeled ligand binding to membranes from C6 rat glioma cells expressing recombinant μ opioid receptor; details: in words
T1 construct: expressed in transfected cells; host or cells: C6 rat glioma cells (membranes)
T1 sequence (P33535 whole entry): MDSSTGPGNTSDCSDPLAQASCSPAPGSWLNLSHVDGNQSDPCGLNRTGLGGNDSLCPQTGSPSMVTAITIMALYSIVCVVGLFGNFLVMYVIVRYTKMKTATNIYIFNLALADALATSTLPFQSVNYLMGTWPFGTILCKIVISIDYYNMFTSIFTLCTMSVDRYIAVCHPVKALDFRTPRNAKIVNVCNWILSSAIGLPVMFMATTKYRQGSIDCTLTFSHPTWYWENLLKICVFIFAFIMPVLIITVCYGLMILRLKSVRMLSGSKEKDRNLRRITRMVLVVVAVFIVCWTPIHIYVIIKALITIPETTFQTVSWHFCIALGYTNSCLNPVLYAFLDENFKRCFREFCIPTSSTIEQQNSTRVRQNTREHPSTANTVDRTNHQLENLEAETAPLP
Experimental: (§1) Opioid-agonist activity was evaluated from the ability of the test article to stimulate [^35S]-GTP's binding.

μ (rat) opioid receptor [3] = target: T1, μ (rat) opioid receptor; test: Opioid-agonist activity: stimulation of [35S]-GTP's binding; type: biochemical
Experimental: as §1

[4] = Release of oxycodone from prodrugs without pancreatin; details: 37° C., pH 7.4, no pancreatin
Pancreatin = test: Effect of pancreatin on release of oxycodone from prodrugs; details: in words

Compound | Half-Life for Hydrolysis, no pancreatin [4] [h] | Effect of pancreatic enzymes on liberation of oxycodone from prodrug (Pancreatin) | also measured
COc1ccc2c3c1OC1C(OC(C)=O)=CCC4(O)C(C2)N(C)CCC314 (stereo not shown) [6-enolacetate] |  |  | half-life for hydrolysis [1]: ~96 h
COc1ccc2c3c1O[C@H]1C(=O)CC[C@@]4(OC(C)=O)[C@@H](C2)N(C)CC[C@]314 [14-acetate ester of oxycodone] |  |  | half-life for the hydrolysis [1]: ~0.333 h
COc1ccc2c3c1O[C@H]1C(OC(=O)C(CCC(=O)O)NC(=O)OCc4ccccc4)=CC[C@@]4(O)[C@@H](C2)N(C)CC[C@]314 (stereo partly drawn) [Compound 1, 2-(benzyloxycarbonylamino)-pentanedioic acid 1-(3-methoxy-14-hydroxy-6,7-didehydro-4,5α-epoxy-17-methylmorphinan-6-yl) ester] |  |  | affinity for the μ receptor relative to oxycodone (μ (rat) opioid receptor [2]): substantially lower; EC50 (μ (rat) opioid receptor [3]): 3.38 ± 0.29 µM
poly(ethylene glycol), Mr 2,000, methyl ether, N-carbonylglutamic acid 1-(3-methoxy-14-hydroxy-6,7-didehydro-4,5α-epoxy-17-methylmorphinan-6-yl) ester [Compound 4] | 5.5 | do not markedly effect | 
poly(ethylene glycol), Mr 2,000, methyl ether, carbonylimidodiacetic acid mono-(3-methoxy-14-hydroxy-6,7-didehydro-4,5α-epoxy-17-methylmorphinan-6-yl) ester [Compound 5] | 11 | do not markedly effect | 
poly(ethylene glycol), Mr 2,000, methyl ether, carboxy ((3-methoxy-14-hydroxy-6,7-didehydro-4,5α-epoxy-17-methylmorphinan-6-yl) ester) methyl ether [Compound 8] | 6.9 | markedly enhanced | 
